Test results: article PMC10707181, “Neuronal Scaffold Protein ARMS Interacts with Synaptotagmin-4 C2AB through the Ankyrin Repeat Domain with an Unexpected Mode” (International Journal of Molecular Sciences, 2023)
Positions count from the first letter of the chain named.

T1: Syt4 C2AB (residues 151–425) (human, UniProt Q9H2B2-1 151-425)
T1 construct: also called Syt4 CAB; source: E. coli BL21 (DE3), purified (Ni-NTA, size-exclusion chromatography)
T1 sequence (looked up): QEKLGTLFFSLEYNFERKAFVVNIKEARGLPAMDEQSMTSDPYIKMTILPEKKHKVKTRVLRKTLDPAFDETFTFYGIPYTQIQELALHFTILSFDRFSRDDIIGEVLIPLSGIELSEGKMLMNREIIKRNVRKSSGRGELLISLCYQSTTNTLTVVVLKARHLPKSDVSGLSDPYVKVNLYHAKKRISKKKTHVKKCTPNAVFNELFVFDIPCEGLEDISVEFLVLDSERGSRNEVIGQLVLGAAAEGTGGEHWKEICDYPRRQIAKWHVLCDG

T2: Syt4 132-425 R283A,K284A (Homo sapiens)
T2 chain: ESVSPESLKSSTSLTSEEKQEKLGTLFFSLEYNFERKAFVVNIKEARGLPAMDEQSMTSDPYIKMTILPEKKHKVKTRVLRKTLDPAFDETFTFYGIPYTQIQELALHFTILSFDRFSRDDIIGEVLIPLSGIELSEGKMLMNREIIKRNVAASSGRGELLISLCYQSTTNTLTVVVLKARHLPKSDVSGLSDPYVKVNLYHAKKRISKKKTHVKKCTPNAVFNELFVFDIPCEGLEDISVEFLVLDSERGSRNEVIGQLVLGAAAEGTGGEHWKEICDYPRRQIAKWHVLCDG

T3: Syt4 132–425 Q186A (human, UniProt Q9H2B2-1 132-425, Q186A)
T3 sequence: T2 chain with Q55A, A152R, A153K

T4: Syt4 132-425 R288A (Homo sapiens)
T4 chain: T2 chain with A152R, A153K, R157A

T5: Syt4 132–425 (human, UniProt Q9H2B2-1 132-425)
T5 chain: T2 chain with A152R, A153K

T6: Syt4 132–425 K284A (human, UniProt Q9H2B2-1 132-425, K284A)
T6 sequence: T2 chain with A152R

T7: Syt4 132-425 K279A,R280A (Homo sapiens)
T7 chain: T2 chain with K148A, R149A, A152R, A153K

T8: Syt4 132-425 K279A,R280A,R283A (Homo sapiens)
T8 chain: T2 chain with K148A, R149A, A153K

T9: Syt4 132-425 R283A (Homo sapiens)
T9 chain: T2 chain with A153K

T10: full length of the cytoplasmic region of Syt4 (CD, residues 41–425) (human, UniProt Q9H2B2-1 41-425)
T10 construct: also called Synaptotagmin-4 CD; source: E. coli BL21 (DE3), purified (Ni-NTA, size-exclusion chromatography)
T10 sequence (looked up): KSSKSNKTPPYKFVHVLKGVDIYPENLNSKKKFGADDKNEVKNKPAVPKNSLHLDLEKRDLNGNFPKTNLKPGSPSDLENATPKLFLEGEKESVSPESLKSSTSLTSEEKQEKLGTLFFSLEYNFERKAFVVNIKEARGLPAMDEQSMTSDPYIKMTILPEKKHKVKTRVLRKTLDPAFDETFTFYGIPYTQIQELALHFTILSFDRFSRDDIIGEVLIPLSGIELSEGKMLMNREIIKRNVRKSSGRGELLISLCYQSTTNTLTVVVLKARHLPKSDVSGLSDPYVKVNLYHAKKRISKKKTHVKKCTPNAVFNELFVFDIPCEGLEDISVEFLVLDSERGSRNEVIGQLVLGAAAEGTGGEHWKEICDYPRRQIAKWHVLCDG

B1: ARMS R1-8 (residues 1–270) (domain or fragment, rat, UniProt Q9EQG6 1-270, looked up)
chain: MSVLISQSVINYVEEENIPALKALLEKCKDVDERNECGQTPLMLAAEQGNVEIVKELLKNGANCNLEDLDNWTALISASKEGHIHIVEELLKSGASLEHRDMGGWTALMWACYKGRTDVVELLLSHGANPSVTGLYSVYPIIWAAGRGHADIVHLLLQNGAKVNCSDKYGTTPLVWAARKGHLECVKHLLAMGADVDQEGANSMTALIVAVKGGYTQSVKEILKRNPNVNLTDKDGNTALMIASKEGHIEIVQDLLDAGTYVNIPDRSGD
notes: ARMS (Kidins220), rat, UniProt Q9EQG6, residues 1-270: ankyrin repeats 1-8; also called ARMS ankyrin repeats 1–8; source: E. coli BL21 (DE3), purified (Ni-NTA, size-exclusion chromatography)
B2: ARMS ankyrin repeats 1–11 (R1-11, residues 1–365) (domain or fragment, rat, UniProt Q9EQG6 1-365, looked up)
chain: MSVLISQSVINYVEEENIPALKALLEKCKDVDERNECGQTPLMLAAEQGNVEIVKELLKNGANCNLEDLDNWTALISASKEGHIHIVEELLKSGASLEHRDMGGWTALMWACYKGRTDVVELLLSHGANPSVTGLYSVYPIIWAAGRGHADIVHLLLQNGAKVNCSDKYGTTPLVWAARKGHLECVKHLLAMGADVDQEGANSMTALIVAVKGGYTQSVKEILKRNPNVNLTDKDGNTALMIASKEGHIEIVQDLLDAGTYVNIPDRSGDTVLIGAVRGGHVEIVRALLQKYADIDIRGQDNKTALYWAVEKGNATMVRDILQCNPDTEICTKDGETPLIKATKMRNIEVVELLLDKGAKVSAVD
notes: ARMS (Kidins220), rat, UniProt Q9EQG6, residues 1-365: ankyrin repeats 1-11; also called ARMS R1-11; ARMS R1-11 WT; source: E. coli BL21 (DE3), purified (Ni-NTA, size-exclusion chromatography)

What was measured:
[1] = target: T1, Syt4 C2AB (residues 151–425); assay: ITC; ARMS proteins (200 μM) in the syringe, Syt4 proteins (20 μM) in the cell; 25 °C; 50 mM Tris, 100 mM NaCl, 1 mM EDTA, 1 mM DTT, pH 7.8; one-site binding model; conditions: both partners purified
Syt4 132-425 R283A,K284A = target: T2, Syt4 132-425 R283A,K284A; assay: ITC
Syt4 132–425 Q186A = target: T3, Syt4 132–425 Q186A; assay: ITC
Syt4 132-425 R288A = target: T4, Syt4 132-425 R288A; assay: ITC
Syt4 132–425 = target: T5, Syt4 132–425; assay: ITC
Syt4 132–425 K284A = target: T6, Syt4 132–425 K284A; assay: ITC
Syt4 132-425 K279A,R280A = target: T7, Syt4 132-425 K279A,R280A; assay: ITC
[2] = target: T8, Syt4 132-425 K279A,R280A,R283A; assay: ITC
Syt4 132-425 R283A = target: T9, Syt4 132-425 R283A; assay: ITC
[3] = target: T10, full length of the cytoplasmic region …; assay: ITC; ARMS proteins (200 μM) in the syringe, Syt4 proteins (20 μM) in the cell; 25 °C; 50 mM Tris, 100 mM NaCl, 1 mM EDTA, 1 mM DTT, pH 7.8; one-site binding model; conditions: both partners purified

Binder	Kd [1] [µM]	Kd (Syt4 132-425 R283A,K284A) [µM]	Kd (Syt4 132–425 Q186A) [µM]	Kd (Syt4 132-425 R288A) [µM]	Kd (Syt4 132–425) [µM]	Kd (Syt4 132–425 K284A) [µM]	Kd (Syt4 132-425 K279A,R280A) [µM]	Kd [2] [µM]	Kd (Syt4 132-425 R283A) [µM]	Kd [3] [µM]
B1	~11	–	–	–	–	–	–	–	–	–
B2	–	4	3	10	12	3	9	19	4	~11
